Blank lines part the entries; values can stand above or below the binder they belong to.
Experiments:
[1] = biological target: CD3 on effector cells (human Pan-T or PBMC) (human, UniProt P07766 23-207; P04234 22-171; P09693 23-182; P20963 22-164); experiment: cell-based or functional assay
recombinant CD3 proteins [2] = experiment: Octet (BLI), bispecific antibody against recombinant CD3 proteins
recombinant CD3 proteins [3] = experiment: Octet (BLI), bispecific antibody against recombinant CD3 proteins; Full R^2 0.00
[4] = biological target: T1, recombinant human CD3 epsilon/delta heterodimer (human, UniProt P07766 23-126; P04234 22-105); experiment: Octet BLI, mAb on FAB2G sensor, hCD3 E/D 200-50 nM; R^2 0.94
T1 construct: Recombinant protein in solution (200-50 nM) in the Octet assay; also called hCD3 E/D; human CD3E/D

[5] = biological target: T2, recombinant human CD3 epsilon/gamma heterodimer (human, UniProt P07766 23-126; P09693 23-116); experiment: Octet BLI, mAb on FAB2G sensor, hCD3 E/G 200-50 nM; R^2 0.92
T2 construct: Recombinant protein in solution (200-50 nM) in the Octet assay; also called hCD3 E/G

[6] = biological target: T1, recombinant human CD3 epsilon/delta …; experiment: Octet BLI, mAb on FAB2G sensor, hCD3 E/D 200-50 nM; R^2 0.92
[7] = biological target: T2, recombinant human CD3 epsilon/gamma …; experiment: Octet BLI, mAb on FAB2G sensor, hCD3 E/G 200-50 nM; R^2 0.59
[8] = biological target: T1, recombinant human CD3 epsilon/delta …; experiment: Octet BLI, mAb on FAB2G sensor, hCD3 E/D 200-50 nM; R^2 0.98;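 also: antibodies purified from hybridoma supernatants, measured by Octet binding to recombinant human CD3 protein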
[9] = biological target: T2, recombinant human CD3 epsilon/gamma …; experiment: Octet BLI, mAb on FAB2G sensor, hCD3 E/G 200-50 nM; R^2 0.95
[10] = biological target: T1, recombinant human CD3 epsilon/delta …; experiment: Octet BLI, mAb on FAB2G sensor, hCD3 E/D 200-50 nM; R^2 0.96
[11] = biological target: T2, recombinant human CD3 epsilon/gamma …; experiment: Octet BLI, mAb on FAB2G sensor, hCD3 E/G 200-50 nM; R^2 0.85
[12] = biological target: T2, recombinant human CD3 epsilon/gamma …; experiment: Octet BLI, mAb on FAB2G sensor, hCD3 E/G 200-50 nM; R^2 0.64
[13] = biological target: T1, recombinant human CD3 epsilon/delta …; experiment: Octet BLI, mAb on FAB2G sensor, hCD3 E/D 200-50 nM; R^2 1.00
[14] = biological target: T2, recombinant human CD3 epsilon/gamma …; experiment: Octet BLI, mAb on FAB2G sensor, hCD3 E/G 200-50 nM; R^2 0.76
[15] = biological target: T2, recombinant human CD3 epsilon/gamma …; experiment: Octet BLI, mAb on FAB2G sensor, hCD3 E/G 200-50 nM; R^2 0.00
[16] = biological target: T1, recombinant human CD3 epsilon/delta …; experiment: Octet BLI, mAb on FAB2G sensor, hCD3 E/D 200-50 nM; R^2 0.95
[17] = biological target: T2, recombinant human CD3 epsilon/gamma …; experiment: Octet BLI, mAb on FAB2G sensor, hCD3 E/G 200-50 nM; R^2 0.96
[18] = biological target: T2, recombinant human CD3 epsilon/gamma …; experiment: Octet BLI, mAb on FAB2G sensor, hCD3 E/G 200-50 nM; R^2 0.79

T2 sequence (P07766 23-126, chain 1 of 2): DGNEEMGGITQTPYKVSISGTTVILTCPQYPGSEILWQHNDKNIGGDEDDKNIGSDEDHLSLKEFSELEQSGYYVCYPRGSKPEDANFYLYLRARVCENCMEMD
T2 sequence (P09693 23-116, chain 2 of 2): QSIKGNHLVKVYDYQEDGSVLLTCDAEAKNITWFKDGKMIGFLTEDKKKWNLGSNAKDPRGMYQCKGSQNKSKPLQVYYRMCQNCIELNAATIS
T1 sequence (P07766 23-126, stated change not applied, chain 1 of 2): as the sequence (P07766 23-126, chain 1 of 2) above
T1 sequence (P04234 22-105, stated change not applied, chain 2 of 2): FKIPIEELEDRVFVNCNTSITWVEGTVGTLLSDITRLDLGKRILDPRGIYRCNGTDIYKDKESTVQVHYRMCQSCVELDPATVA
Chain of CD3 on effector cells (human Pan-T or PBMC) (P07766 23-207, chain 1 of 4): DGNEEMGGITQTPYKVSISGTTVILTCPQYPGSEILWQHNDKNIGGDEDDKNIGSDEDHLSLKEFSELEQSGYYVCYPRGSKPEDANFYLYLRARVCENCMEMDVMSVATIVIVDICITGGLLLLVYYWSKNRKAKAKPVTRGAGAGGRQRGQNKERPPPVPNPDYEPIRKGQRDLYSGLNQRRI
Chain of CD3 on effector cells (human Pan-T or PBMC) (P04234 22-171, chain 2 of 4): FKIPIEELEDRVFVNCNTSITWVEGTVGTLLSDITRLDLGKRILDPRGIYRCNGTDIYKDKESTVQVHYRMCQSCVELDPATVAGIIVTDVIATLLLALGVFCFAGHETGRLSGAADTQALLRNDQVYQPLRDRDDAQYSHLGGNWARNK
Chain of CD3 on effector cells (human Pan-T or PBMC) (P09693 23-182, chain 3 of 4): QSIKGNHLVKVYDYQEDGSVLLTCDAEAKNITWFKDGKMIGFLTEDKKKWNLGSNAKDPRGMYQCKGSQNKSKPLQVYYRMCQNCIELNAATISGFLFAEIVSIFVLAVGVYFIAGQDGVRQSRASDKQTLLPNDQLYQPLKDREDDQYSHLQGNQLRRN
Chain of CD3 on effector cells (human Pan-T or PBMC) (P20963 22-164, chain 4 of 4): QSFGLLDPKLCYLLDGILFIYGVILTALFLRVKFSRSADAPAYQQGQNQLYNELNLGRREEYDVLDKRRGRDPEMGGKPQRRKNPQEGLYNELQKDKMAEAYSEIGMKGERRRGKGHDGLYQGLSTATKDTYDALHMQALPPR

Response (recombinant CD3 proteins [2]): 0.03
Kd (recombinant CD3 proteins [3]): 0.854 nM
koff (recombinant CD3 proteins [3]): 1.07e-05 s⁻¹
kon (recombinant CD3 proteins [3]): 12500 M⁻¹ s⁻¹
B1: CD3 × CD33-BspAb66 (bispecific antibody, human IgG1, kappa)
scFv: EVQLVESGGGLVQPGRSLRLSCAASGFTFDDYAMHWVRQAPGKGLEWVSGISWNSGSIGYADSVKGRFTISRDNAKNSLYLQMNSLRAEDTALYYCAKDSRGYGDYRLGGAYWGQGTLVTVSSGGGGSGGGGSGGGGSGGGGSEIVMTQSPATLSVSPGERATLSCRASQSVSSNLAWYQQKPGQAPRLLIYGASTRATGIPARFSGSGSGTEFTLTISSLQSEDFAVYYCQQYNNWPWTFGQGTKVEIKTSGPGGPDKTHTCPPCPAPEFEGGPSVFLFPPKPKDTLMISRTPEVTCVVVDVSHEDPEVKFNWYVDGVEVHNAKTKPREEQYNSTYRVVSVLTVLHQDWLNGKEYKCKVSNKALPASIEKTISKAKGQPREPQVYTLPPCREEMTKNQVSLWCLVKGFYPSDIAVEWESNGQPENNYKTTPPVLDSDGSFFLYSKLTVDKSRWQQGNVFSCSVMHEALHNHYTQKSLSLSPGK
heavy: EVQLVQSGAEVKKPGSSVKVSCKASGYTITDSNIHWVRQAPGQSLEWIGYIYPYNGGTDYNQKFKNRATLTVDNPTNTAYMELSSLRSEDTAFYYCVNGNPWLAYWGQGTLVTVSSASTKGPSVFPLAPSSKSTSGGTAALGCLVKDYFPEPVTVSWNSGALTSGVHTFPAVLQSSGLYSLSSVVTVPSSSLGTQTYICNVNHKPSNTKVDKRVEPKSCDKTHTCPPCPAPEFEGGPSVFLFPPKPKDTLMISRTPEVTCVVVDVSHEDPEVKFNWYVDGVEVHNAKTKPREEQYNSTYRVVSVLTVLHQDWLNGKEYKCKVSNKALPASIEKTISKAKGQPREPQVCTLPPSREEMTKNQVSLSCAVKGFYPSDIAVEWESNGQPENNYKTTPPVLDSDGSFFLVSKLTVDKSRWQQGNVFSCSVMHEALHNRFTQKSLSLSPGK
light: DIQLTQSPSTLSASVGDRVTITCRASESLDNYGIRFLTWFQQKPGKAPKLLMYAASNQGSGVPSRFSGSGSGTEFTLTISSLQPDDFATYYCQQTKEVPWSFGQGTKVEVKRTVAAPSVFIFPPSDEQLKSGTASVVCLLNNFYPREAKVQWKVDNALQSGNSQESVTEQDSKDSTYSLSSTLTLSKADYEKHKVYACEVTHQGLSSPVTKSFNRGEC
notes: also called CD3δε-specific control antibody scFv-Fc knob/TM; CD3xCD33-BspAb66
RTCC EC50 (nM), KILR HL-60 T Cell Redirection cytotoxic assay with CD33-expressing target cells [1]: 25.4 nM

Kd [6]: 17.8 nM
koff [6]: 0.00404 s⁻¹
kon [6]: 227000 M⁻¹ s⁻¹
Kd [7]: 1.43 nM
koff [7]: 0.00269 s⁻¹
kon [7]: 1.89e+06 M⁻¹ s⁻¹
B3: ABL-CD3-37 (antibody, V domains shown)
VH: EVQLVESGGGLVQPGGSLRLSCAASGFSFSSYSMNWVRQAPGKGLEWVSHIRSSTYSIYYADSVMGRFTISRDNAKNSLYLQMNSLRDEDTAVYFCARAKTGGDAFDIWGQGTMVTVSS
VL: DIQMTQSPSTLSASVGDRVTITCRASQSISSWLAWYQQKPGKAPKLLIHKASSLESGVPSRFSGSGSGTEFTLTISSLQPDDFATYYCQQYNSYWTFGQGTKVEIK
notes: Chimeric hybridoma mAb: human V, CH1, upper hinge; mouse middle hinge, CH2, CH3

Kd [8]: 117 nM
Response [8]: 0.26
koff [8]: 0.0218 s⁻¹
kon [8]: 187000 M⁻¹ s⁻¹
Kd [9]: 69.2 nM
koff [9]: 0.0402 s⁻¹
kon [9]: 581000 M⁻¹ s⁻¹
B4: ABL-CD3-61 (antibody, V domains shown)
VH: EVQLVESGGGLVKPGGSLRLSCAASGFTFSSYSMNWVRQAPGKGLEWVSSISRSGTYIYYADSVKGRFTISRDNAKNSLYLQMNSLRAEDTAVYYCARERWELLYFDYWGQGTLVTVSS
VL: QTVVTQEPSLTVSPGGTVTLTCASSTGAVTSGYYPNWFQQKPGQAPRALIYSTSNKHSWTPARFSGSLLGGKAALTLSGVQPEDEAEYYCLLYYGGAYVFGTGTKVTVL
notes: as for B3

Kd [13]: 25 nM
Response [13]: 0.49
koff [13]: 0.00101 s⁻¹
kon [13]: 40400 M⁻¹ s⁻¹
Kd [14]: 4.18 nM
koff [14]: 0.00729 s⁻¹
kon [14]: 1.74e+06 M⁻¹ s⁻¹
B7: ABL-CD3-36 (antibody, V domains shown)
VH: EVQLVESGGGLVQRGGSLRLSCAASGFTFSNYWMSWVRQAPGKGLEWVANIKEDGSEKYCVDSVKGRFTISRDNAKHSLYLQMNSLRAEDTAVYYCARERRTGYFDYWGQGTLVTVSS
VL: DIQMTQSPSTLSASVGDRVTITCRASQSISSWLAWFQQKTGKAPKLLIYKASSLESGVPSRFSGSGSGTEFTLTISSLQPDDFATYYCQQYISYSWTFGQGTKVEIK
notes: as for B3

Kd [13]: 8.32 nM
Response [13]: 0.41
koff [13]: 0.000307 s⁻¹
kon [13]: 36900 M⁻¹ s⁻¹
Kd [15]: < 0.001 nM
koff [15]: < 1e-07 s⁻¹
kon [15]: 50000 M⁻¹ s⁻¹
B8: ABL-CD3-39 (antibody, V domains shown)
VH: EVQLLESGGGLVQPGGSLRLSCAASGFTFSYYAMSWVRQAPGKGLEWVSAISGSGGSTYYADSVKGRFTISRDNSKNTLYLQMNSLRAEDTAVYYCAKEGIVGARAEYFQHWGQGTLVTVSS
VL: DVVMTQSPLSLPVTLGQPASISCRSSQSLVYSDGNTYLTWFQQRPGQSPRRLIYKVSNRDSGVPDRFSGSGSGTDFTLKISRVEAEDVEIYYCMQGTHWPLTFGGGTKVEIK
notes: as for B3

Kd [16]: 38.9 nM
koff [16]: 0.0152 s⁻¹
kon [16]: 390000 M⁻¹ s⁻¹
Kd [17]: 31.6 nM
koff [17]: 0.00962 s⁻¹
kon [17]: 305000 M⁻¹ s⁻¹
B9: ABL-CD3-32 (antibody, V domains shown)
VH: EVQLVESGGGLVKPGGSLRLSCEASGFTFSSYNMNWVRQAPGKGLEWVSSISSSSSYIYYTDSVKGRFTISRDNAKNSLYLQMNSLRAEDTAVYYCARAERGSYAFDFWGQGTMVTVSS
VL: not shown
notes: as for B3

More lines, now with the values behind:

B2: ABL-CD3-31 (antibody, V domains shown)
VH: EVQLVQSGAEVKKPGESLKISCKGSGYSFTNYWIGWVRQMPGKGLEWMGIIYPADSDTTYSPSFQGQVTISADKSITTAYLQWSSLKASDTAMYYCARHGGSYILDAFDIWGQGTMVTVSS
VL: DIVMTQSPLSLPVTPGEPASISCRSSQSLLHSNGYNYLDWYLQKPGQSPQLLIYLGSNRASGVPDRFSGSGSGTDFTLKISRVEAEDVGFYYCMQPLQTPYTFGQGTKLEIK
notes: as for B3
Kd [4]: 6.66 nM
koff [4]: 0.00149 s⁻¹
kon [4]: 223000 M⁻¹ s⁻¹
Kd [5]: 5.64 nM
koff [5]: 0.00173 s⁻¹
kon [5]: 306000 M⁻¹ s⁻¹

B5: ABL-CD3-22 (antibody, V domains shown)
VH: EVQLVESGGGLVQPGGSLRLSCAASGFTFSSYSMNWVRQAPGKGLEWVSYISSSSSTIYYADSVKGRFTISRDNAKNSLYLQMNSLRDEDTAVYYCARDGPVDYGMDVWGQGTTVTVSS
VL: SYELTQPPSVSVSPGQTARITCSGDALPKQYTYWCQQKPGQAPVLVIYKDSERPSGIPERFSGSSSGTTVTLTISGVQAEDEADYYCQSADSSGTYRVFGGGTKLTVL
notes: as for B3
Kd [10]: 49.2 nM
Response [10]: 0.08
koff [10]: 0.00513 s⁻¹
kon [10]: 104000 M⁻¹ s⁻¹
Kd [11]: 14.4 nM
koff [11]: 0.00639 s⁻¹
kon [11]: 444000 M⁻¹ s⁻¹

B6: ABL-CD3-27 (antibody, V domains shown)
VH: QVQLVQSGAEVKKPGASLKVSCKASGYTFTSYYMHWVRQAPGQGLEWMGIINPSNGNTISAQKFQGRVTMTRDTSTSTVYMEMSSLRSEDTAVYYCVRCWGYYVMDVWGQGTTVTVSS
VL: QTVVTQEPSFSVSPGGTVTLTCGLNSGSVSTSYYPSWYQQTPGQTPRTLIYSTNTRSSGVPDRFSGSILGNKAALTITGAQADDESDYYCVLYMGSGIWVFGGGTKLTVL
notes: as for B3
Kd [10]: 2.31 nM
Response [10]: 0.39
koff [10]: 0.000528 s⁻¹
kon [10]: 228000 M⁻¹ s⁻¹
Kd [12]: 3.65 nM
koff [12]: 0.00156 s⁻¹
kon [12]: 428000 M⁻¹ s⁻¹

B10: ABL-CD3-21 (antibody, V domains shown)
VH: EVQLVESGGGLVKPGGSLRLSCAASGFTFSSYSMNWVRQAPGKGLEWVSSISRSSSYIYYADSVKGRFTLSRDNAKNSLYLQMNSLRGEDTAIYYCGRDGKGAIFLDYWGQGTLVTVSS
VL: SYELTQPPSVSVSPGQTARITCSGDALPKKYAYWYQQKSGQAPVLVIYEDSKRPSGIPERFSGSSSGTMATLTISGAQVEDEADYYCYSTHSSGNHRVFGGGTKLTVL
notes: as for B3
Kd [8]: 95.3 nM
Response [8]: 0.27
koff [8]: 0.036 s⁻¹
kon [8]: 378000 M⁻¹ s⁻¹
Kd [18]: 130 nM
koff [18]: 0.0994 s⁻¹
kon [18]: 766000 M⁻¹ s⁻¹
